Read-outs that look alike come from different tables or passages of the source.
T1: short isoform of VEGF (8-109) (UniProt P15692 214-315)
T1 construct: range 8-109; Immobilized by amine coupling for SPR; in solution for the fluorescence assay; also called vascular endothelial growth factor
T1 sequence (looked up): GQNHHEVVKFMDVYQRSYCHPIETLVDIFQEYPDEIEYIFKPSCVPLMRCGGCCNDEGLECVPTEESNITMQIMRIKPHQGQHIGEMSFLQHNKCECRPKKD


Experiments:
[1] = biological target: T1, short isoform of VEGF (8-109); assay: SPR (BIAcore), VEGF immobilized, 25 mM Tris, 150 mM NaCl, 25 C
[2] = biological target: T1, short isoform of VEGF (8-109); assay: calculated from k-1 and k1, 0 M NaCl data
[3] = biological target: T1, short isoform of VEGF (8-109); assay: fluorescence-based association assay at varied salt concentration
Experimental: (§1) In the experiments described here, the fluorescence emission intensity (λexcitation=295 nm; λₑₘᵢₛₛᵢₒₙ=340 nm, 16 nm bandpass) was measured using an 8000-series SLM-Aminco spectrophotometer (THERMOSPECTRONIC®) as VEGF was added to a stirred cuvette containing approximately 10 nM Fab in 25 mM Tris, pH 7.2, held at 37° C.

[4] = biological target: T1, short isoform of VEGF (8-109); assay: fluorescence-based association assay in solution, 25 mM Tris pH 7.2, 37 C
Experimental: as §1
(§2) Residues are numbered according the Kabat system (Kabat et al. Sequences of Proteins of Immunological Interest, 5th Edition., National Institute of Health, Bethesda, Md. (1991)). k₁ determined by the fluorescence-based assay (±standard deviation of three experiments). k₋₁ determined by surface plasmon resonance (±standard deviation of 12 experiments). k₁ and k₋₁ (0 M NaCl) experiments were performed in 25 mM Tris, pH 7.2, at 37° C. k₋₁ (0.15 M NaCl) experiments performed in 25 mM Tris, 150 mM NaCl, at 25° C.

[5] = biological target: T1, short isoform of VEGF (8-109); assay: SPR (BIAcore), VEGF immobilized, 25 mM Tris pH 7.2, 0 M NaCl, 37 C
Experimental: (§3) Dissociation rates were measured by surface plasmon resonance on a BIACORE-2000® instrument (BIAcore, Inc.) as described previously (Muller et al. Structure 6(9): 1153-67 (1998)). VEGF was immobilized by amine coupling to a B1 chip at approximately 10 resonance-response units. Fab binding was measured at 1 μM, 500 nM, 250 nM, 125 nM, 62.5 nM, and 31.3 nM. Dissociation was calculated assuming a one-to-one binding model. All experiments were performed at 37° C. in phosphate buffered saline solution, pH 7.2, containing 0.05% Tween-20, 0.01% NaN3 and at a flow rate of 20 μL min⁻¹.
as §2

[6] = biological target: T1, short isoform of VEGF (8-109); assay: fluorescence-based association assay in solution, 25 mM Tris pH 7.2, 37 C; remark: listed apart in the source
Experimental: as §1

[7] = biological target: T1, short isoform of VEGF (8-109); assay: calculated from k-1 and k1, 0 M NaCl data; remark: listed apart in the source
[8] = biological target: T1, short isoform of VEGF (8-109); assay: fluorescence-based association assay in solution, 25 mM Tris pH 7.2, 37 C; remark: listed apart in the source
Experimental: as §1
as §2, with “three experiments, wild-type only).” for “three experiments).”

[9] = biological target: T1, short isoform of VEGF (8-109); assay: SPR (BIAcore), VEGF immobilized, 25 mM Tris pH 7.2, 0 M NaCl, 37 C; remark: listed apart in the source
Experimental: as §3
as §2, with “three experiments, wild-type only).” for “three experiments).”

[10] = biological target: T1, short isoform of VEGF (8-109); assay: SPR (BIAcore), VEGF immobilized, 25 mM Tris, 150 mM NaCl, 25 C; remark: listed apart in the source

Binder | kon [4] [M⁻¹ s⁻¹] | Kd [7] [nM] | kon [8] [M⁻¹ s⁻¹] | koff [9] [s⁻¹] | further results
34-TKKT (VH-(T28D, S100aR)+VL-(S26T, Q27K, D28K, S30T)) (Fab, V domains shown, Fab of Y0101 with both altered chains) VH: EVQLVESGGGLVQPGGSLRLSCAASGYDFTNYGMNWVRQAPGKGLEWVGWINTYTGEPTYAADFKRRFTFSLDTSKSTAYLQMNSLRAEDTAVYYCAKYPHYYGRSHWYFDVWGQGTLVTVSS VL: DIQLTQSPSSLSASVGDRVTITCSATKKITNYLNWYQQKPGKAPKVLIYFTSSLHSGVPSRFSGSGSGTDFTLTISSLQPEDFATYYCQQYSTVPWTFGQGTKVEIKR | 3.3e+06 |  |  |  | koff [1]: 2e-05 s⁻¹; Kd [2]: 0.08 nM; fold difference in association rate against Y0101 in 150 mM NaCl [3]: < 2 fold; koff [5]: 0.00026 s⁻¹; fold higher association rate than Y0101 [6]: 6 fold
Fab Y0101 variant, heavy chain S100aR (Fab, name in Kabat numbering, V domains shown, Fab of Y0101 with one heavy chain substitution) VH: EVQLVESGGGLVQPGGSLRLSCAASGYTFTNYGMNWVRQAPGKGLEWVGWINTYTGEPTYAADFKRRFTFSLDTSKSTAYLQMNSLRAEDTAVYYCAKYPHYYGRSHWYFDVWGQGTLVTVSS VL: DIQLTQSPSSLSASVGDRVTITCSASQDISNYLNWYQQKPGKAPKVLIYFTSSLHSGVPSRFSGSGSGTDFTLTISSLQPEDFATYYCQQYSTVPWTFGQGTKVEIKR |  | 0.3 | 870000 | 0.00024 | koff [10]: 7e-05 s⁻¹
Fab Y0101 variant, heavy chain E56K (Fab, name in Kabat numbering, V domains shown, Fab of Y0101 with one heavy chain substitution) VH: EVQLVESGGGLVQPGGSLRLSCAASGYTFTNYGMNWVRQAPGKGLEWVGWINTYTGKPTYAADFKRRFTFSLDTSKSTAYLQMNSLRAEDTAVYYCAKYPHYYGSSHWYFDVWGQGTLVTVSS VL: DIQLTQSPSSLSASVGDRVTITCSASQDISNYLNWYQQKPGKAPKVLIYFTSSLHSGVPSRFSGSGSGTDFTLTISSLQPEDFATYYCQQYSTVPWTFGQGTKVEIKR |  | 0.9 | 480000 | 0.00044 | 
Fab Y0101 variant, heavy chain T28K (Fab, name in Kabat numbering, V domains shown, Fab of Y0101 with one heavy chain substitution) VH: EVQLVESGGGLVQPGGSLRLSCAASGYKFTNYGMNWVRQAPGKGLEWVGWINTYTGEPTYAADFKRRFTFSLDTSKSTAYLQMNSLRAEDTAVYYCAKYPHYYGSSHWYFDVWGQGTLVTVSS VL: DIQLTQSPSSLSASVGDRVTITCSASQDISNYLNWYQQKPGKAPKVLIYFTSSLHSGVPSRFSGSGSGTDFTLTISSLQPEDFATYYCQQYSTVPWTFGQGTKVEIKR |  |  | 360000 |  | 
Fab Y0101 variant, heavy chain Y99K (Fab, name in Kabat numbering, V domains shown, Fab of Y0101 with one heavy chain substitution) VH: EVQLVESGGGLVQPGGSLRLSCAASGYTFTNYGMNWVRQAPGKGLEWVGWINTYTGEPTYAADFKRRFTFSLDTSKSTAYLQMNSLRAEDTAVYYCAKYPHYKGSSHWYFDVWGQGTLVTVSS VL: DIQLTQSPSSLSASVGDRVTITCSASQDISNYLNWYQQKPGKAPKVLIYFTSSLHSGVPSRFSGSGSGTDFTLTISSLQPEDFATYYCQQYSTVPWTFGQGTKVEIKR |  | 0.4 | 380000 | 0.00015 | koff [10]: 0.00014 s⁻¹
Fab Y0101 variant, heavy chain Y99R (Fab, name in Kabat numbering, V domains shown, Fab of Y0101 with one heavy chain substitution) VH: EVQLVESGGGLVQPGGSLRLSCAASGYTFTNYGMNWVRQAPGKGLEWVGWINTYTGEPTYAADFKRRFTFSLDTSKSTAYLQMNSLRAEDTAVYYCAKYPHYRGSSHWYFDVWGQGTLVTVSS VL: DIQLTQSPSSLSASVGDRVTITCSASQDISNYLNWYQQKPGKAPKVLIYFTSSLHSGVPSRFSGSGSGTDFTLTISSLQPEDFATYYCQQYSTVPWTFGQGTKVEIKR |  | 0.2 | 600000 | 0.00014 | koff [10]: 0.00016 s⁻¹
Fab Y0101 variant, heavy chain T28D, S100aR (Fab, V domains shown, Fab; also called altered heavy chain T28D-S100aR) VH: EVQLVESGGGLVQPGGSLRLSCAASGYDFTNYGMNWVRQAPGKGLEWVGWINTYTGEPTYAADFKRRFTFSLDTSKSTAYLQMNSLRAEDTAVYYCAKYPHYYGRSHWYFDVWGQGTLVTVSS VL: DIQLTQSPSSLSASVGDRVTITCSASQDISNYLNWYQQKPGKAPKVLIYFTSSLHSGVPSRFSGSGSGTDFTLTISSLQPEDFATYYCQQYSTVPWTFGQGTKVEIKR | 1.4e+06 |  |  |  | koff [1]: 0.00011 s⁻¹

Second part, led by results:

kon [4] [M⁻¹ s⁻¹] | Kd [7] [nM] | kon [8] [M⁻¹ s⁻¹] | koff [9] [s⁻¹] | Binder | further results
1.3e+06 |  |  |  | Fab Y0101 variant, light chain S52K, S53K, L54T (Fab, V domains shown, Fab of Y0101 with several light chain substitutions) VH: EVQLVESGGGLVQPGGSLRLSCAASGYTFTNYGMNWVRQAPGKGLEWVGWINTYTGEPTYAADFKRRFTFSLDTSKSTAYLQMNSLRAEDTAVYYCAKYPHYYGSSHWYFDVWGQGTLVTVSS VL: DIQLTQSPSSLSASVGDRVTITCSASQDISNYLNWYQQKPGKAPKVLIYFTKKTHSGVPSRFSGSGSGTDFTLTISSLQPEDFATYYCQQYSTVPWTFGQGTKVEIKR | 
1.3e+06 |  |  |  | Fab Y0101 variant, light chain S26K, D28K, S30K (Fab, V domains shown, Fab of Y0101 with several light chain substitutions) VH: EVQLVESGGGLVQPGGSLRLSCAASGYTFTNYGMNWVRQAPGKGLEWVGWINTYTGEPTYAADFKRRFTFSLDTSKSTAYLQMNSLRAEDTAVYYCAKYPHYYGSSHWYFDVWGQGTLVTVSS VL: DIQLTQSPSSLSASVGDRVTITCSAKQKIKNYLNWYQQKPGKAPKVLIYFTSSLHSGVPSRFSGSGSGTDFTLTISSLQPEDFATYYCQQYSTVPWTFGQGTKVEIKR | 
 |  | 710000 |  | Fab Y0101 variant, light chain Y32R (Fab, V domains shown, Fab of Y0101 with one light chain substitution) VH: EVQLVESGGGLVQPGGSLRLSCAASGYTFTNYGMNWVRQAPGKGLEWVGWINTYTGEPTYAADFKRRFTFSLDTSKSTAYLQMNSLRAEDTAVYYCAKYPHYYGSSHWYFDVWGQGTLVTVSS VL: DIQLTQSPSSLSASVGDRVTITCSASQDISNRLNWYQQKPGKAPKVLIYFTSSLHSGVPSRFSGSGSGTDFTLTISSLQPEDFATYYCQQYSTVPWTFGQGTKVEIKR | 
610000 |  |  |  | Fab Y0101 variant, light chain S26K, Q27K, D28N, S30T (Fab, V domains shown, Fab of Y0101 with several light chain substitutions) VH: EVQLVESGGGLVQPGGSLRLSCAASGYTFTNYGMNWVRQAPGKGLEWVGWINTYTGEPTYAADFKRRFTFSLDTSKSTAYLQMNSLRAEDTAVYYCAKYPHYYGSSHWYFDVWGQGTLVTVSS VL: DIQLTQSPSSLSASVGDRVTITCSAKKNITNYLNWYQQKPGKAPKVLIYFTSSLHSGVPSRFSGSGSGTDFTLTISSLQPEDFATYYCQQYSTVPWTFGQGTKVEIKR | 
 |  | 440000 |  | Fab Y0101 variant, light chain L54K (Fab, V domains shown, Fab of Y0101 with one light chain substitution) VH: EVQLVESGGGLVQPGGSLRLSCAASGYTFTNYGMNWVRQAPGKGLEWVGWINTYTGEPTYAADFKRRFTFSLDTSKSTAYLQMNSLRAEDTAVYYCAKYPHYYGSSHWYFDVWGQGTLVTVSS VL: DIQLTQSPSSLSASVGDRVTITCSASQDISNYLNWYQQKPGKAPKVLIYFTSSKHSGVPSRFSGSGSGTDFTLTISSLQPEDFATYYCQQYSTVPWTFGQGTKVEIKR | 
